The results in this text go back to PMC10665349.

Where “and” joins values, the source holds several entries; their conditions need not be identical. Equal entries are not always repeated. Where two headings read alike, the source gives them in different places.

Assay [1] concerns the target GST fused to the C-terminal residues 200-294 of HMPV P (strain CAN97-83) (human metapneumovirus strain CAN97-83).
Assay [2] has as its target HMPV nucleoprotein N (strain NL/00/1), assembled and RNA-bound (N-RNA) (human metapneumovirus strain NL/00/1) (UniProt Q6WBA1). The experiment in a line: cryo-EM structure; single-particle cryo-EM of recombinant N-RNA (1.0 mg/ml) in 25 mM Tris-HCl pH 8.0, 250 mM NaCl; 2D classification and 3D reconstruction of 10-mer, 11-mer and spiral particles, local refinement of an N-RNA dimer.

Assay [3] has the same target. Described as above. The source holds these as a separate data set.

Turning to “HMPV N (strain NL99-1, plasmid pN) triple mutant with alanines in positions 100, 103 and 111 (natural protein)”, the HMPV polymerase activity, minigenome assay (Firefly luciferase) in BSRT7/5 cells, compared to wild-type; N and full-length P of strain NL99-1 from pCite plasmids (% of wild-type) in assay [1] is 30. The same measure, in the same setting: the figure for “HMPV N (strain NL99-1, plasmid pN) L111A (natural protein)” is less than 50. On to “HMPV nucleoprotein N (strain NL/00/1), assembled and RNA-bound (N-RNA) (from UniProt Q6WBA1 1-394) (natural protein)”, for which the stoichiometry N was greater than 12 protomers in assay [2]; 10 protomers and 11 protomers and 12 protomers in assay [3]. As for “HMPV N (strain CAN97-83) with a C-terminal 6xHis tag, L111E (natural protein)”, in assay [1], the HMPV polymerase activity, minigenome assay (Firefly luciferase) in BSRT7/5 cells, compared to wild-type; N and full-length P of strain NL99-1 from pCite plasmids (% of wild-type) was determined as 10.
